Test results: IntAct's records for PubMed 11278422

B1: Apoptosis-stimulating of p53 protein 2 (Homo sapiens), Q13625-2 (parent)
chain: MDLTLAELQEMASRQQQQIEAQQQLLATKEQRLKFLKQQDQRQQQQVAEQEKLKRLKEIAENQEAKLKKVRALKGHVEQKRLSNGKLVEEIEQMNNLFQQKQRELVLAVSKVEELTRQLEMLKNGRIDSHHDNQSAVAELDRLYKELQLRNKLNQEQNAKLQQQRECLNKRNSEVAVMDKRVNELRDRLWKKKAALQQKENLPVSSDGNLPQQAASAPSRVAAVGPYIQSSTMPRMPSRPELLVKPALPDGSLVIQASEGPMKIQTLPNMRSGAASQTKGSKIHPVGPDWSPSNADLFPSQGSASVPQSTGNALDQVDDGEVPLREKEKKVRPFSMFDAVDQSNAPPSFGTLRKNQSSEDILRDAQVANKNVAKVPPPVPTKPKQINLPYFGQTNQPPSDIKPDGSSQQLSTVVPSMGTKPKPAGQQPRVLLSPSIPSVGQDQTLSPGSKQESPPAAAVRPFTPQPSKDTLLPPFRKPQTVAASSIYSMYTQQQAPGKNFQQAVQSALTKTHTRGPHFSSVYGKPVIAAAQNQQQHPENIYSNSQGKPGSPEPETEPVSSVQENHENERIPRPLSPTKLLPFLSNPYRNQSDADLEALRKKLSNAPRPLKKRSSITEPEGPNGPNIQKLLYQRTTIAAMETISVPSYPSKSASVTASSESPVEIQNPYLHVEPEKEVVSLVPESLSPEDVGNASTENSDMPAPSPGLDYEPEGVPDNSPNLQNNPEEPNPEAPHVLDVYLEEYPPYPPPPYPSGEPEGPGEDSVSMRPPEITGQVSLPPGKRTNLRKTGSERIAHGMRVKFNPLALLLDSSLEGEFDLVQRIIYEVDDPSLPNDEGITALHNAVCAGHTEIVKFLVQFGVNVNAADSDGWTPLHCAASCNNVQVCKFLVESGAAVFAMTYSDMQTAADKCEEMEEGYTQCSQFLYGVQEKMGIMNKGVIYALWDYEPQNDDELPMKEGDCMTIIHREDEDEIEWWWARLNDKEGYVPRNLLGLYPRIKPRQRSLA

Variants of: B1
Conditions: with yap1_chick YAP1, P46936
yap1_chick YAP1, P46936, sequence (P46936 whole entry): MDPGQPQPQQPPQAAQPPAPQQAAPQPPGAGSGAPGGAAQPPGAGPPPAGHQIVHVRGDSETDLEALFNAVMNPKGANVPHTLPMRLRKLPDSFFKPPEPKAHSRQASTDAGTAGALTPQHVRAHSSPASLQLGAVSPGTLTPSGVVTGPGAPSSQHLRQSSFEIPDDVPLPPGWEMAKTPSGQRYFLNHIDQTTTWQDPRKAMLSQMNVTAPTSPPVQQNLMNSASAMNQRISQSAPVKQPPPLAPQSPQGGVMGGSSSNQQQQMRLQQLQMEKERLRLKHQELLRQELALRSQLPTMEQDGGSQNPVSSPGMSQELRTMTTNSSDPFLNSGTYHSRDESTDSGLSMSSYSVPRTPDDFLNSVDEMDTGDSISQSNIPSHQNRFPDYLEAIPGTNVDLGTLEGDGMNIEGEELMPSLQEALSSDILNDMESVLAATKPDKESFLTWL

| effect of a mutation on the interaction | Variant |
| --- | --- |
| disrupting interaction | Y746A |

Variants of: B1
Conditions: with yap1_chick YAP1, P46936
Remark: another data set of the same source

| effect of a mutation on the interaction | Variant |
| --- | --- |
| disrupting interaction | P748A |

Variants of: B1
Conditions: with yap1_chick YAP1, P46936
Remark: another data set of the same source

| effect of a mutation on the interaction | Variant |
| --- | --- |
| disrupting interaction | P749A |

Variants of: B1
Conditions: with yap1_chick YAP1, P46936
Remark: another data set of the same source

| effect of a mutation on the interaction | Variant |
| --- | --- |
| disrupting interaction | Y751A |

Variants of: B1
Conditions: with yap1_chick YAP1, P46936
Remark: another data set of the same source

| effect of a mutation on the interaction | Variant |
| --- | --- |
| decreasing interaction | P747A |
